Measured values reported in doi:10.1101/507483.
Like-named read-outs stand apart in the source and are kept apart here.

Experiments:
[1] = target: TagA^ΔC, N-terminal domain of TagA from Thermoanaerobacter italicus (residues Met1-Gly195) (Thermoanaerobacter italicus); assay: AUC
[2] = target: TagA^ΔC, N-terminal domain of TagA from Thermoanaerobacter italicus (residues Met1-Gly195) (Thermoanaerobacter italicus); assay: AUC; remark: listed apart in the source

- Kd [1]: 3.5 µM
- stoichiometry N [1]: 2
- Kd [2]: 7.4 µM
- stoichiometry N [2]: 2
Substance: TagA^ΔC, N-terminal domain of TagA from Thermoanaerobacter italicus (residues Met1-Gly195) (domain or fragment)
